One substance from article PMC4267838 can be followed below.

The assay concerns the target histone deacetylase 5 (rat (endogenous in Sprague-Dawley rat cardiac myocytes)). Nature of the assay: co-IP; HDAC5 precipitated from equal amounts of cardiac myocyte nuclear extracts, 14-3-3 detected by western blotting; cells treated with vehicle, ET1 (0.1 µM), PPAR ligands (troglitazone 1 µM, fenofibrate 10 µM, GW501516 1 µM), with or without shRNA knockdown of DGKζ. On the technique in general: In western blotting, separated proteins are transferred to a membrane and probed.

“14-3-3 chaperone proteins (from UniProt P63102 1-245) (natural protein)” had a percent of normalized 14-3-3 in HDAC5 precipitates of ET1-treated cells vs. vehicle-treated control (% vs. control) of 138.
